{
  "source": "paper PMC7138851",
  "about": "“Quantitative assessment of the determinant structural differences between redox-active and inactive glutaredoxins” (Nature Communications, 2020)",
  "molecules": {"B1": {"name": "HsGrx5 (Homo sapiens; C122S/DEL60-64/P65T/Q66G) (protein)", "chain": "AGSGAGGGGSAEQLDALVKKDKVVVFLKTGCGFSNAVVQILRLHGVRDYAAYNVLDDPELRQGIKDYSNWPTIPQVYLNGEFVGGSDILLQMHQNGDLVEELKKLGIHSALLDEKKDQDSK", "notes": "E. coli XL1-Blue, pQE30; N-terminal MRGS(H)6 tag; C122S in all constructs"}},
  "key": {"Cys108 [1]": {"target": "Cys108 (UniProt position 108, FSATGCPYSKK)", "assay": "chemical modification", "settings": "23 °C (alkylation step), 25 °C (HEDS activity read-out), 100 mM KCl in a constant-ionic-strength three-buffer system, the ionic strength value is not stated, 50 mM potassium acetate, 50 mM MES, 100 mM Tris, Free enzyme, freshly reduced with a 20-fold molar excess of NaBH4, 6 µM protein"}, "Cys108 [2]": {"target": "Cys108 (UniProt position 108, FSKTGCPYSKK)", "assay": "chemical modification", "settings": "23 °C, 100 mM KCl in a constant-ionic-strength three-buffer system (value not stated), 50 mM potassium acetate, 50 mM MES, 100 mM Tris, Freshly reduced (NaBH4) free enzyme, no glutathione bound"}, "ScGrx7": {"target": "T1, ScGrx7 (Saccharomyces cerevisiae, UniProt P38068)", "T1 construct": "gene GRX7; E. coli XL1-Blue, pQE30; N-terminal MRGS(H)6 tag", "T1 sequence (P38068 33-203)": "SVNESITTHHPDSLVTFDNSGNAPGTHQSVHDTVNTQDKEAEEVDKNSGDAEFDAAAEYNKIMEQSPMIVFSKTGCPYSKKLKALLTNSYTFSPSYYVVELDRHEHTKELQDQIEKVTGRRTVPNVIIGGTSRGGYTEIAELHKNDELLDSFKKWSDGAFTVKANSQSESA", "set-up": "Disulfide oxidoreductase assay, steady-state kinetics, coupled NADPH consumption at 340 nm, pH 8.0, 25 °C", "settings": "apparent Km at highest fixed GSH concentration; substrate; read-out: Km app(HEDS)", "method": "Steady-state kinetics of wild-type and mutant ScGrx7 and HsGrx5^C122S in the GSSCys and [compound left out] assays were determined spectrophotometrically by monitoring the consumption of NADPH at 340 nm and 25 °C using a thermostated Jasco V-650 UV/vis spectrophotometer[11],[19],[25]. Fresh stock solutions of NADPH, GSH, GR, and GSSCys or [compound left out] were prepared in assay buffer containing 0.1 M Tris/HCl, 1 mM EDTA, pH 8.0 before each experiment. Both assays were performed with 0.1 mM NADPH and 1 U/ml ScGR. […] NADPH, GSH, and GR were mixed in assay buffer before Grx was added and a baseline was recorded for 30 s. […] The absorbance of a reference cuvette containing all components but no Grx was measured in parallel and subtracted from the obtained Grx activity. […] NADPH, GSH, and [compound left out] were preincubated in assay buffer for 2 min before GR was added and a baseline was recorded for 30 s. […] Kinetic data were analyzed in Excel and SigmaPlot 13 by nonlinear and linear regression according to Michaelis–Menten, Lineweaver–Burk, Eadie–Hofstee, and Hanes theory[11],[19],[25]."}, "HsGrx5": {"target": "T2, HsGrx5 (Homo sapiens, UniProt Q86SX6, C122S)", "T2 construct": "gene GLRX5; E. coli XL1-Blue, pQE30; N-terminal MRGS(H)6 tag; C122S in all constructs", "T2 sequence (Q86SX6 32-157 C122S)": "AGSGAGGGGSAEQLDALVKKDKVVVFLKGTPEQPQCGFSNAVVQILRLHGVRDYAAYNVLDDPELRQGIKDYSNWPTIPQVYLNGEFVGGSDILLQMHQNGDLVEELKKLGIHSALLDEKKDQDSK", "assay": "UV/vis absorbance of purified protein", "format": "binding", "settings": "as purified from E. coli; cluster type not determined here"}, "Cys108 [3]": {"target": "Cys108 (UniProt position 108, FSETGCPYSKK)", "assay": "chemical modification", "settings": "23 °C, 100 mM KCl in a constant-ionic-strength three-buffer system (value not stated), 50 mM potassium acetate, 50 mM MES, 100 mM Tris, Freshly reduced (NaBH4) free enzyme, no glutathione bound"}, "[4]": {"substrate": "N[C@@H](CCC(=O)N[C@@H](CS)C(=O)NCC(=O)O)C(=O)O", "assay": "purified protein, by the assay type", "set-up": "GSSCys oxidoreductase assay, GR-coupled NADPH consumption at 340 nm, apparent Km from Hanes plots", "settings": "pH 8.0; 25.0 °C", "method": "(§1) Steady-state kinetics of wild-type and mutant ScGrx7 and HsGrx5^C122S in the GSSCys and [compound left out] assays were determined spectrophotometrically by monitoring the consumption of NADPH at 340 nm and 25 °C using a thermostated Jasco V-650 UV/vis spectrophotometer[11],[19],[25]. Fresh stock solutions of NADPH, GSH, GR, and GSSCys or [compound left out] were prepared in assay buffer containing 0.1 M Tris/HCl, 1 mM EDTA, pH 8.0 before each experiment. Both assays were performed with 0.1 mM NADPH and 1 U/ml ScGR. The following final protein concentrations were used for Y110F/H/A (5–150 nM), D144A/K (10 nM), E147A/K (10 nM), R153A/E (25–50 nM), ScGrx7^WP (20 nM), ScGrx7^loop (up to 1.4 µM), ScGrx7^WP+loop (up 2.6 µM), HsGrx5^C122S (up to 15 µM), HsGrx5^RR (up to 12 µM), HsGrx5^loop (up to 1.6 µM), and HsGrx5^RR+loop (up to 4.0 µM). For the GSSCys assays, GSH was varied between 50 µM and 1.5 mM at fixed GSSCys concentrations (25, 50, 100, and 150 µM). NADPH, GSH, and GR were mixed in assay buffer before Grx was added and a baseline was recorded for 30 s. All GSSCys assays were started by the addition of GSSCys. The absorbance of a reference cuvette containing all components but no Grx was measured in parallel and subtracted from the obtained Grx activity. For the [compound left out] assays, GSH was varied between 100 µM and 2.0 mM at fixed concentrations of [compound left out] (0.18, 0.37, 0.55, and 0.74 mM). NADPH, GSH, and [compound left out] were preincubated in assay buffer for 2 min before GR was added and a baseline was recorded for 30 s. All [compound left out] assays were started by the addition of enzyme. Kinetic data were analyzed in Excel and SigmaPlot 13 by nonlinear and linear regression according to Michaelis–Menten, Lineweaver–Burk, Eadie–Hofstee, and Hanes theory[11],[19],[25]. 29 Supplementary Figure 15 Supplementary Figure 15 | GSSCys assay steady-state kinetics of HsGrx5loop and HsGrx5RR+loop . […] The activities of HsGrx5 and HsGrx5RR were similar to the NADPH consumption of negative controls without enzyme and could not be analyzed."}, "[5]": {"substrate": "N[C@@H](CCC(=O)N[C@@H](CSSC[C@H](N)C(=O)O)C(=O)NCC(=O)O)C(=O)O", "assay": "purified protein, by the assay type", "set-up": "GSSCys oxidoreductase assay, GR-coupled NADPH consumption at 340 nm, apparent Km from Hanes plots", "settings": "pH 8.0; 25.0 °C", "method": "as §1"}},
  "note": "Where “and” joins values, the source holds several entries; their conditions need not be identical. Equal entries are not always repeated.",
  "data": [
    {"molecule": "Glutaredoxin 7 (ScGrx7) K105A (Saccharomyces cerevisiae; K105A)", "values": [
      {"measurement": "pKa", "setting": "Cys108 [1]", "value": "4.4 ± 0.1"}
    ]},
    {"molecule": "Glutaredoxin 7 (ScGrx7), wild type (Saccharomyces cerevisiae)", "values": [
      {"measurement": "pKa", "setting": "Cys108 [2]", "value": "4.3 ± 0.1 and 4.48"}
    ]},
    {"molecule": "OCCSSCCO", "note": "[HEDS]", "values": [
      {"measurement": "Km", "setting": "ScGrx7", "value": "820 ± 190", "unit": "µM"}
    ]},
    {"molecule": "[S]1[Fe][S][Fe]1", "note": "[iron–sulfur cluster]", "values": [
      {"measurement": "UV/vis absorbance of purified protein", "setting": "HsGrx5", "value": "Freshly purified recombinant wild-type HsGrx5 contained an iron–sulfur cluster"}
    ]},
    {"molecule": "Glutaredoxin 7 (ScGrx7) K105E (Saccharomyces cerevisiae; K105E)", "values": [
      {"measurement": "pKa", "setting": "Cys108 [3]", "value": "5.0 ± 0.1"}
    ]},
    {"molecule": "B1", "values": [
      {"measurement": "kcat", "setting": "[4]", "value": "0.18 s⁻¹ and 0.27 s⁻¹"},
      {"measurement": "kcat/Km", "setting": "[4]", "value": "3900 M⁻¹ s⁻¹ and 4800 M⁻¹ s⁻¹"},
      {"measurement": "kcat/Km", "setting": "[5]", "value": "1500 M⁻¹ s⁻¹ and 1600 M⁻¹ s⁻¹"}
    ]}
  ]
}
